Laboratory results published in the supplement of paper PMC9170038.

Test system: MS2 coat protein
Experiment: apparent KD of MS2 coat protein; designed switch direction (-1 OFF switch, 1 ON switch): -1; higher = weaker reporter binding
Procedure, shortened: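 The reported apparent KD is a per-design median over clusters, from curve fits of normalised cluster fluorescence. Protein titrations used SNAP-549-labelled MS2 coat protein, doubled from 0.7 or 1.5 nM to 3 µM, in Tris-HCl pH 7.5 buffer with KCl, MgCl2, BSA, DTT, tRNA and Tween-20, with no input, 200 uM small-molecule ligand, or an oligonucleotide input. The RNA switches were transcribed on Illumina chips by stalled E. coli RNA polymerase.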

[1] = Eterna round: R95, input ligand: FMN 200 uM
[2] = Eterna round: R95, input ligand: none
[3] = input ligand: microRNA oligo, concentration not stated
[4] = Eterna round: R95, input ligand: microRNA oligo, concentration not stated

AGAAAUGCCCAUGGCCGCAAGCUUUUCGCUUGUCUUACCACAUGAGGAUCACCCAUGUGACAUGGGCUCCUUAUAAU [Usdigeor] (puzzle: Sensor v3, turn-off variant 2)
apparent KD of MS2 coat protein [1]: 12.3 nM
apparent KD of MS2 coat protein [2]: 12 nM

UUAGAAAUGUUAGGAUAUUAAUAUUUUUUUAGUAUGAUCUACAUGAGGAUCACCCAUGUUAAUAUUAAGAAGGAACAUUUUAUU [JR_ExcNG2_Sub099] (Eterna round: R96, puzzle: Exclusion NG 2)
apparent KD of MS2 coat protein [3]: 71.5 nM

CGGUGCUUGUGGAAACAUGAGGAUCACCCAUGUUGAGUUAGCGAGGAUAUCGGUAACACAUGUCACGAGAAGGCGCGAACCAGA [Ex NG3 #33] (Eterna round: R96, puzzle: Exclusion NG 3)
apparent KD of MS2 coat protein (input ligand: FMN 200 uM): 39.6 nM
apparent KD of MS2 coat protein [3]: 18.1 nM
apparent KD of MS2 coat protein (input ligand: none): 16.2 nM

UUUUAACAUGAGGAUCACCCAUGUGAGGAUAUCGAAAUUUAUAUUUAUAUUAAUUAUACGAGAAGGCACAUUUU [JMF 86] (puzzle: Exclusion 1)
apparent KD of MS2 coat protein [4]: 65.5 nM

GUUAACGCAGGAUAUUAGUACUUUUACAUGAGGAUCACCCAUGUUAAUUGGGUCUAAGAAUAAGAAGGGCGAUGAA [JR_Ex5_Sub009] (Eterna round: R97, puzzle: Exclusion 5)
apparent KD of MS2 coat protein (input ligand: FMN 200 uM): 48.3 nM
apparent KD of MS2 coat protein (input ligand: none): 42.8 nM

AUAUAGAUGGUCAGGAUAUGCUAGUGAUAACAGUAGCAGAAGGGACAUGAGGAUCACCCAUGUGGAUAGCGCAC [Brourd's EX4 #6] (Eterna round: R97, puzzle: Brourd's mod of Exclusion 4)
apparent KD of MS2 coat protein (input ligand: FMN 200 uM): 123 nM
apparent KD of MS2 coat protein (input ligand: none): 37.1 nM

AGAUCUAGGACAGGAUAUACGGAUGUCUUCAUCGAAGAUGAAGACAUUACAUGAGGAUCACCCAUGUAGAAGGGUCCUAGAUCA [Omei Exc(NG) 2Av1] (Eterna round: R96, puzzle: Exclusion NG 2)
apparent KD of MS2 coat protein (input ligand: FMN 200 uM): 13.8 nM
apparent KD of MS2 coat protein [3]: 10.6 nM
apparent KD of MS2 coat protein (input ligand: none): 13.1 nM

CGUUGCAGAGGAUAUACAUGAGGAUCACCCAUGUGAAAUUAUAGUGAGGAAAUGAAAAGUAGAAGGCUGUGACA [Mod of Mat 11 - Jieux - Exclusion 3] (Eterna round: R97, puzzle: Exclusion 3)
apparent KD of MS2 coat protein (input ligand: FMN 200 uM): 267 nM
apparent KD of MS2 coat protein (input ligand: none): 47.3 nM

UGUCAAGCAGGAUAUGCACGUAAUAACAUGAGGAUCACCCAUGUGACCGAUUUAUAUUCUGCAGAAGGGCUUGUUU [LRO-Excl5-19-mod of Erxesoan mod by Eli Fisker] (Eterna round: R97, puzzle: Exclusion 5)
apparent KD of MS2 coat protein (input ligand: FMN 200 uM): 109 nM
apparent KD of MS2 coat protein (input ligand: none): 26.7 nM

GCACGGUAAGUGAGGAUAUACCUCUGGAUACAGAGGUAGAAGGCACAUGAGGAUCACCCAUGUUCCUGCCGUGC [Fiskers BMX 4 - 89] (puzzle: Brourd's mod of Exclusion 4)
apparent KD of MS2 coat protein [4]: 15.9 nM

GAAAAGGUAGGAUAUACGAAAAAAAAGGGUAGAAAAAAUACACAUGAGGAUCACCCAUGUAGAAGGACCAAAAG [salish99_ex2_r3_073] (puzzle: Exclusion 2)
apparent KD of MS2 coat protein [1]: 138 nM
apparent KD of MS2 coat protein [4]: 23.9 nM
apparent KD of MS2 coat protein [2]: 29.7 nM

GGGUGACAUGAGGAUCACCCAUGUCAGGAUAUGAUACUAUGUACUUCGGUACAUAGUAUCAGAAGGGACAUCAU [Ex1-3: 14] (Eterna round: R96, puzzle: Exclusion 1)
apparent KD of MS2 coat protein (input ligand: FMN 200 uM): 112 nM
apparent KD of MS2 coat protein [3]: 253 nM
apparent KD of MS2 coat protein (input ligand: none): 424 nM

UGCGGGCUUUUGAGACCUCACAUGAGGAUCACCCAUGUGCUUGUCUUGUGGGUCGGUAGGUCGUUGGCUGACUGACG [Sensor-V1 #97] (Eterna round: R97, puzzle: Sensor, turn-off variant 1)
apparent KD of MS2 coat protein (input ligand: FMN 200 uM): 15.5 nM
apparent KD of MS2 coat protein (input ligand: none): 13.4 nM

GCACGGUAAGUGAGGAUAUACCUCUGGAUACAGAGGUAGAAGGCACAUGAGGAUCACCCAUGUCUAUACCGUGC [Fiskers BMX 4 - 81] (puzzle: Brourd's mod of Exclusion 4)
apparent KD of MS2 coat protein [1]: 20.3 nM
apparent KD of MS2 coat protein [4]: 13.6 nM
apparent KD of MS2 coat protein [2]: 13.8 nM

CGUCUGUAAGGAUAUGGUUGCAUCAACAUGAGGAUCACCCAUGUAACAUGGGACUAGUGAUUAGAAGGUACGAACG [EX5 #58] (Eterna round: R97, puzzle: Exclusion 5)
apparent KD of MS2 coat protein (input ligand: FMN 200 uM): 156 nM
apparent KD of MS2 coat protein (input ligand: none): 142 nM

AAGUACCGUCACGAAAGUGAUGGUACAACAAGUAAAUGUACAUGAGGAUCACCCAUGUCCUCAAUUGCUCGUCUUAU [Sensor 3 - 60] (puzzle: Sensor v3, turn-off variant 2)
apparent KD of MS2 coat protein [1]: 722 nM
apparent KD of MS2 coat protein [4]: 202 nM
apparent KD of MS2 coat protein [2]: 745 nM

AGCUGAGCAGGAUAUACAUGAGGAUCACCCAUGUUGGUCAAGCGACGAUAGUCGCAAUGUAGAAGGGCUCAGCU [E3/8-D2] (Eterna round: R97, puzzle: Exclusion 3)
apparent KD of MS2 coat protein (input ligand: FMN 200 uM): 114 nM
apparent KD of MS2 coat protein (input ligand: none): 357 nM

GUCAUCUAUCAUGGGAUAAACAUGAGGAUCACCCAUGUAUACAAGUUUUUUGCUCGUCUUAUAAUAAGAUAGAUGAC [Antenna 4 - Jieux - Sensor, turn-off variant 1] (Eterna round: R97, puzzle: Sensor, turn-off variant 1)
apparent KD of MS2 coat protein (input ligand: FMN 200 uM): 16.6 nM
apparent KD of MS2 coat protein (input ligand: none): 16.1 nM

UCACCGCAAGGAUAUACUUGCGGUGAUGUUCGAAUCUUUCUACUUGAGGAUCACCCAAGUAGAAGGUGCGGUGA [jl-ex2.4.69 ViennaUCT mod] (Eterna round: R97, puzzle: Exclusion 2)
apparent KD of MS2 coat protein (input ligand: FMN 200 uM): 15.4 nM
apparent KD of MS2 coat protein (input ligand: none): 12.2 nM

CCAAUCAGAGGAUAUGCGAAUAAAUAAAACUUUUUUUUUUAACAUGAGGAUCACCCAUGUAGAAGGCUGUAACC [Ex2 #43] (Eterna round: R97, puzzle: Exclusion 2)
apparent KD of MS2 coat protein (input ligand: FMN 200 uM): 31.5 nM
apparent KD of MS2 coat protein (input ligand: none): 25.4 nM

ACAAGAUCGGAAGGAUAUUGUACAUGAGGAUCACCCAUGUAAUAAAUGAGGAUCACGGAUGUAGUCAAGAAGGUCCGGAUAAGA [Ostracism 3 - Jieux - Exclusion NG 2] (Eterna round: R96, puzzle: Exclusion NG 2)
apparent KD of MS2 coat protein (input ligand: FMN 200 uM): 36.9 nM
apparent KD of MS2 coat protein [3]: 41.2 nM
apparent KD of MS2 coat protein (input ligand: none): 43.8 nM

GGUCCUGAUGAUUUUCUAUACAUGAGGAUCACCCAUGUAUGUGUAUUUUGUUUUUCGCUUUUUGGUCGUCAAUAAUA [Mod-Hoo-honey] (Eterna round: R97, puzzle: Sensor, turn-off variant 1)
apparent KD of MS2 coat protein (input ligand: FMN 200 uM): 43.8 nM
apparent KD of MS2 coat protein (input ligand: none): 44.3 nM

CUCGCUGUGGUUAGGAUAUGUGGGUUAGCAGGCGCAUAGAAGGAACAUGAGGAUCACCCAUGUGGGUUGGUGCG [Eternabot (L2) Solution 88] (Eterna round: R97, puzzle: Brourd's mod of Exclusion 4)
apparent KD of MS2 coat protein (input ligand: FMN 200 uM): 39.4 nM
apparent KD of MS2 coat protein (input ligand: none): 62.7 nM

UGCAGACGAGGAUAUAGAUUUGAUAACAUGAGGAUCACCCAUGUGAUCGAUAGAUCAGAUUUAGAAGGUGUCUGCA [E5/8-B2] (Eterna round: R97, puzzle: Exclusion 5)
apparent KD of MS2 coat protein (input ligand: FMN 200 uM): 579 nM
apparent KD of MS2 coat protein (input ligand: none): 431 nM

GGUUGGCGAGGAUAUACAUGAGGAUCACCCAUGUGGUCCUGAGAUAGAAUAGCCCUUUGUAGAAGGCGCGGGUC [salish99_ex3_r4_044] (Eterna round: R97, puzzle: Exclusion 3)
apparent KD of MS2 coat protein (input ligand: FMN 200 uM): 203 nM
apparent KD of MS2 coat protein (input ligand: none): 166 nM

AAGAAACAUGAGGAUCACCCAUGUGAGGAUAUGAAAAAUAAAAGAAAAGAAAGAAUAAUCAGAAGGCACAAAGG [Mat - Mod of Hog D10] (puzzle: Exclusion 1)
apparent KD of MS2 coat protein [1]: 51.4 nM
apparent KD of MS2 coat protein [4]: 37.3 nM
apparent KD of MS2 coat protein [2]: 41.4 nM

CUGCUGGAGCUUUGCUUUGGUCGUACAUGAGGAUCACCCAUGUAGGAUAUGGUAAAAUUUGCUUGCUAGAAGGAUAGAGUGGUC [salish99_ExNG3_r04_612] (Eterna round: R96, puzzle: Exclusion NG 3)
apparent KD of MS2 coat protein (input ligand: FMN 200 uM): 88.1 nM
apparent KD of MS2 coat protein [3]: 34.3 nM
apparent KD of MS2 coat protein (input ligand: none): 42.4 nM

AGCCCUGCAGGAUAUGCCGAGGAUAACAUGAGGAUCACCCAUGUGACCGAUUGUUAGACUGCAGAAGGGCAUGGGA [salish99_ex5_r4_303] (Eterna round: R97, puzzle: Exclusion 5)
apparent KD of MS2 coat protein (input ligand: FMN 200 uM): 81.7 nM
apparent KD of MS2 coat protein (input ligand: none): 509 nM

CGUUCGCGUGUAGGAUAUGUGUCUGUGUCGGGCGCAGAAGGACAUGAGGAUCACCCAUGUCUGCGGGUGUGGGCGCUCUCUGCG [-29, -28 kcal A 14%] (Eterna round: R96, puzzle: Exclusion NG 1)
apparent KD of MS2 coat protein (input ligand: FMN 200 uM): 69.6 nM
apparent KD of MS2 coat protein [3]: 18.2 nM
apparent KD of MS2 coat protein (input ligand: none): 26.9 nM

GGACCGAGUGUGAGGAUAUGCUGGUCCUUGGAUCAGCAGAAGGCACAUGAGGAUCACCCAUGUGGAGACGGUCC [Eli bmx4 4.33] (Eterna round: R97, puzzle: Brourd's mod of Exclusion 4)
apparent KD of MS2 coat protein (input ligand: FMN 200 uM): 1050 nM
apparent KD of MS2 coat protein (input ligand: none): 87.4 nM

AGUACUAUCACGAGAGUGAUAGUACAUUAAACUUGUGAGACAUGAGGAUCACCCAUGUCCUCAUGAGCUCGUCUUAA [Mat - Sensor v2 - var 2 - Mod - D185] (Eterna round: R96, puzzle: Sensor v2, turn-off variant 2)
apparent KD of MS2 coat protein (input ligand: FMN 200 uM): 299 nM
apparent KD of MS2 coat protein [3]: 96.1 nM
apparent KD of MS2 coat protein (input ligand: none): 165 nM

GGUGCGUGUGUGAGGAUAUGCUGGUCCUUGGAUCAGCAGAAGGCACAUGAGGAUCACCCAUGUGGUGUCGUACC [salish99_Bmod_Ex4_029] (puzzle: Brourd's mod of Exclusion 4)
apparent KD of MS2 coat protein [4]: 232 nM

UAUAUAUAGUAAGGAUAUGUAUUUAUUUUAUCAACAGAAGGUACUGACAUGAGGAUCACCCAUGUUUUAGUGUGGGCAUGUAGA [JMF's solution 26] (Eterna round: R96, puzzle: Exclusion NG 1)
apparent KD of MS2 coat protein (input ligand: FMN 200 uM): 155 nM
apparent KD of MS2 coat protein [3]: 69.7 nM
apparent KD of MS2 coat protein (input ligand: none): 85.7 nM
